How the values were obtained:
[1] = molecular target: in vitro translated 35S-labeled Brd4-CTD (human) (UniProt O60885)
[2] = molecular target: His-Xpress-SV40NLS-HBrd41047-1362 (human) (UniProt O60885)

In the case of “GST-tagged HPV16 E2 R37A (from UniProt P03120 1-365)”, the percent of Brd4 bound compared to wild type E2 [1] is reported as under 20%.

“GST-tagged HPV16 E2 W33A (from UniProt P03120 1-365)” showed a percent of Brd4 bound compared to wild type E2 [1] of under 20%.

In the case of “GST-tagged HPV16 E2 W92A (from UniProt P03120 1-365)”, the percent of Brd4 bound compared to wild type E2 [1] is reported as under 20%.

In the case of “GST-tagged HPV16 E2 W134A (from UniProt P03120 1-365)”, the percent of Brd4 bound compared to wild type E2 [1] is reported as under 20%.

Work on “HPV16 E2 D122A (pCMV4-16E2 mutant, expressed in C33A cells) (from UniProt P03120 1-365)” yielded a percent of wild type E2 binding [2] of over 40%.

“HPV16 E2 E39A (pCMV4-16E2 mutant, expressed in C33A cells) (from UniProt P03120 1-365)” was tested, and the percent of wild type E2 binding [2] was over 40%.

Work on “HPV16 E2 E90A (pCMV4-16E2 mutant, expressed in C33A cells) (from UniProt P03120 1-365)” yielded a percent of wild type E2 binding [2] of over 40%.

“HPV16 E2 F121A (pCMV4-16E2 mutant, expressed in C33A cells) (from UniProt P03120 1-365)” gave a percent of wild type E2 binding [2] of over 40%.

“HPV16 E2 K68A (pCMV4-16E2 mutant, expressed in C33A cells) (from UniProt P03120 1-365)” showed a percent of wild type E2 binding [2] of over 40%.

In the case of “HPV16 E2 L79A (pCMV4-16E2 mutant, expressed in C33A cells) (from UniProt P03120 1-365)”, the percent of wild type E2 binding [2] is reported as over 40%.

For “HPV16 E2 R37A (pCMV4-16E2 mutant, expressed in C33A cells) (from UniProt P03120 1-365)”, the percent of wild type E2 binding [2] was under 10%.

“HPV16 E2 T93A (pCMV4-16E2 mutant, expressed in C33A cells) (from UniProt P03120 1-365)” showed a percent of wild type E2 binding [2] of over 40%.

“HPV16 E2 W33A (pCMV4-16E2 mutant, expressed in C33A cells) (from UniProt P03120 1-365)” was tested, and the percent of wild type E2 binding [2] was under 10%.

With “HPV16 E2 W92A (pCMV4-16E2 mutant, expressed in C33A cells) (from UniProt P03120 1-365)” the percent of wild type E2 binding [2] was under 10%.

Work on “HPV16 E2 Y138A (pCMV4-16E2 mutant, expressed in C33A cells) (from UniProt P03120 1-365)” yielded a percent of wild type E2 binding [2] of over 40%.

In the case of “HPV16 E2 Y178A (pCMV4-16E2 mutant, expressed in C33A cells) (from UniProt P03120 1-365)”, the percent of wild type E2 binding [2] is reported as over 40%.
